According to patent US7807153 (Genentech, dated 2010):

Target: T1, DR4 expressed in transfected CHO cells (UniProt O00220 24-468, limits assumed)
T1 construct: whole, on cells; also called DR4-transfected CHO cells; DR4-transfected cells
Test: immunohistochemistry on sections of transfected CHO cells
Experimental: CHO cells were transfected with vector alone or vector containing the gene for Apo-2 or DR4. The transfected cells were removed from culture plates, pelleted, and washed twice with PBS. The pellets were then resuspended in O.C.T. (Fisher), flash frozen in isopentain and LN_2, and later sectioned using standard protocols. Staining of the sectioned cells was performed using a Vectastain Elite ABC kit. […] The secondary antibody employed was either a biotinylated anti-c-myc 9E10 antibody or anti-Penta His antibody (Qiagen) followed by biotinylated anti-mouse IgG.

binding result: no binding
B1: single chain antibody (scFv) fragment 16E2 (scFv)
scFv: EVQLVQSGGGVERPGGSLRLSCAASGFTFDDYGMSWVRQAPGKGLEWVSGINWNGGSTGYADSVKGRVTISRDNAKNSLYLQMNSLRAEDTAVYYCAKILGAGRGWYFDLWGKGTTVTVSSGGGGSGGGGSGGGGSSELTQDPAVSVALGQTVRITCQGDSLRSYYASWYQQKPGQAPVLVIYGKNNRPSGIPDRFSGSSSGNTASLTITGAQAEDEADYYCNSRDSSGNHVVFGGGTKLTVLGAAAHHHHHHGAAEQKLISEEDLNGAA
notes: Purified by IMAC from E. coli; also called 16E2 antibody; anti-Apo-2 antibody 16E2
